Residue numbers refer to the chain shown, from its start.
T1: recombinant human CD32b protein, biotinylated (human, UniProt P31994 43-217)
T1 construct: also called CD32b-His; recombinant CD32b protein
T1 sequence: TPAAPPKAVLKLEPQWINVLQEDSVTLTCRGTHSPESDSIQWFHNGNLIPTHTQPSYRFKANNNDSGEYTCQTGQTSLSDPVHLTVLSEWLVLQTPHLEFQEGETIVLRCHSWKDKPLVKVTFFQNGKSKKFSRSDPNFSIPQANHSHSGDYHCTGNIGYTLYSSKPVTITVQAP

T2: human CD32b expressed on cells (human, UniProt P31994 43-310)
T2 construct: also called SupT1-CD32b; CHO-CD32b
T2 sequence: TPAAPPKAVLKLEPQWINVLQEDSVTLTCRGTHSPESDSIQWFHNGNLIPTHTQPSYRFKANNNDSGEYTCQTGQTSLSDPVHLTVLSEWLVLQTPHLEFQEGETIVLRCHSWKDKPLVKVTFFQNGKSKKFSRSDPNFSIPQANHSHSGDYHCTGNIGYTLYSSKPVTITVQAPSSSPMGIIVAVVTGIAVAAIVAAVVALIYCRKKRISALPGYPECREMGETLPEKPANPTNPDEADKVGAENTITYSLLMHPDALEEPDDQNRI

B1: DARPin 53.A8 (designed binder)
chain: DLGKKLLEATRAGQDDEVRILMANGANVNATDEEGLTPLHLAALDGHLEIVEVLLKYGADVNADDMHGPTPLHLAAYAGHLEIVEVLLKYGADVNAYDCGGHTPLHLAARLGHLEIVEVLLKYGADVNAQDKFGKTPFDLAIDNGNEDIAEVLQKAA
B2: DARPin 53.A11 (designed binder)
chain: DLGKKLLEATRAGQDDEVRILMANGADVNATDEEGLTPLHLAALIGHLEIVEVLLKYGADVNAADMDGTTPLHLAAQEGHLEIVEVLLKYGADVNADDFWGHTPLHLAAWFGHLEIVEVLLKHGADVNAQDKFGKTPFDLAIDNGNEDIAEVLQKAA
notes: also called 53.C9; 53.F7
B3: DARPin 53.2.H9 (designed binder)
chain: B2 chain with A76V, H123Y, V152A
B4: DARPin 53.2.B6 (designed binder)
chain: B2 chain with L81Q, T136I
B5: DARPin 53.E11 (designed binder)
chain: B2 chain with T10A, A59T
B6: DARPin 53.B10 (designed binder)
chain: B2 chain with H123N
B7: DARPin 53.2.E10 (designed binder)
chain: B2 chain with A30T
B8: DARPin 53.H9 (designed binder)
chain: B2 chain with A64V, E151Q
B9: DARPin 53.2.H5 (designed binder)
chain: B2 chain with G58D, A109P, K122N, I149L
B10: DARPin 53.G7 (designed binder)
chain: B2 chain with A43V, E52D
B11: DARPin 53.2.D6 (designed binder)
chain: B2 chain with E8D, T10A, R11S
B12: DARPin 53.2.H4 (designed binder)
chain: B2 chain with A30T, E118D, K122A, H123N, G124V, Q130N, D131S, K132A, F133Q, G134S
B13: DARPin 53.B8 (designed binder)
chain: B2 chain with A23T, A26T, L48P, G91C, H123Y
B14: DARPin 53.D7 (designed binder)
chain: B2 chain with T10A, H123N
B15: DARPin 53.2.C8 (designed binder)
chain: DLGKKLLEAARAGQDDAVRILMANGADANAYDHMGETPLHLAAMEGHLEIVEVLLKHGADVNADDWDGQTPLHLAAHWGHLEIVEVLLKYGADVKEQDVVGYTPLHLAAWIGHLEIVEVLLKNGADVNAQDKFGKTPFDLAIDNGNEDIAEVLQKAA
B16: DARPin 53.C1 (designed binder)
chain: DLGKKLLEAARVGQDDEVRILMANGADVNATDNEGQTPLHLAAMWGHLEIVEVQLKHGADVNASDTFGSTPLHLAARFGHLEIVEVLLKYGADVNAADTEGFTPLHLAAIDGHLEIVEVLLKHGADVNAQDKFGKTPFDLAIDNGNEDIAEVLQKAA
B17: DARPin 53.A10 (designed binder)
chain: DLGKKLLEAARAGQDDEVRILMSNGADVNAWDKEGVTPLHLAAVHGHLEIVEVLLKHGADVNAQDDVGMTPLHLAAHWGHLEIVEVLLKYGADVNAQDYAGMTPLHLAAFQGHLEIVEVLLKHGADVNAQDKFGKTPFDLAIDNGNEDIAQVLQKAA
B18: DARPin 53.G1 (designed binder)
chain: B17 chain with A10T, Q151E
B19: DARPin 53.D11 (designed binder)
chain: DLGKKLLEAARAGQDDEVRILMANGADVNATDITGATPLHLAAMWGHLEIVEVLLKYGADVNAQDYEGYTTLHLAAMWGHLEIVEVLLKYGADVNAHDVAGHTPLHLATHFGHLEIVEVLLKHGADVNAQDKFGKTPFDLAIDNGNEDIAEVLQKAA

Target: T3, neutravidin (UniProt P02701 25-152)
T3 construct: also called neutravidin NA chip (Cytiva)
Assay: SPR, Biacore T200, neutravidin NA chip

T3 sequence (P02701 25-152): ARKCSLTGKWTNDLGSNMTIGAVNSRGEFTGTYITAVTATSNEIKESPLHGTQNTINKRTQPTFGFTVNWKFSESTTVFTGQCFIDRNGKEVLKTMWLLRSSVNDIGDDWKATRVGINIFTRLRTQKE

Row | Binder | binding result
1 | B1 | no binding

Target: T1, recombinant human CD32b protein, …
Assay: SPR, Biacore T200, biotinylated CD32b on neutravidin chip

Row | Binder | binding result
2 | B1 | no binding

Target: T2, human CD32b expressed on cells
Assay: flow cytometry, crude E. coli extract on SupT1-CD32b cells

Row | Binder | binding result
3 | B2 | no binding (tested: 5-25 µl of crude DARPin extracts)
4 | B3 | no binding (tested: 5-25 µl of crude DARPin extracts)
5 | B4 | no binding (tested: 5-25 µl of crude DARPin extracts)
6 | B5 | no binding (tested: 5-25 µl of crude DARPin extracts)
7 | B6 | no binding (tested: 5-25 µl of crude DARPin extracts)
8 | B7 | no binding (tested: 5-25 µl of crude DARPin extracts)
9 | B8 | no binding (tested: 5-25 µl of crude DARPin extracts)
10 | B9 | no binding (tested: 5-25 µl of crude DARPin extracts)
11 | B10 | no binding (tested: 5-25 µl of crude DARPin extracts)
12 | B11 | no binding (tested: 5-25 µl of crude DARPin extracts)
13 | B12 | no binding (tested: 5-25 µl of crude DARPin extracts)
14 | B13 | no binding (tested: 5-25 µl of crude DARPin extracts)
15 | B14 | no binding (tested: 5-25 µl of crude DARPin extracts)
16 | B15 | no binding (tested: 5-25 µl of crude DARPin extracts)
17 | B16 | no binding (tested: 5-25 µl of crude DARPin extracts)
18 | B1 | no binding (tested: 5-25 µl of crude DARPin extracts)
19 | B17 | no binding (tested: 5-25 µl of crude DARPin extracts)
20 | B18 | no binding (tested: 5-25 µl of crude DARPin extracts)
21 | B19 | no binding (tested: 5-25 µl of crude DARPin extracts)

From patent US20250101071A1 (PAUL EHRLICH INSTITUT BUNDESINSTITUT F R IMPFSTOFFE UND …, published 2025)
